Numbering of substitutions follows the chain as printed. In names and notes the source's numbering stands.

The chains are these.
B1: AtHTMT1 (AtHOL1; halide/thiocyanate methyltransferase, HTMT) (Arabidopsis thaliana) (protein)
chain: MAEEQQNSDQSNGGNVIPTPEEVATFLHKTVEEGGWEKCWEEEITPWDQGRATPLIVHLVDTSSLPLGRALVPGCGGGHDVVAMASPERFVVGLDISESALAKANETYGSSPKAEYFSFVKEDVFTWRPTELFDLIFDYVFFCAIEPEMRPAWAKSMYELLKPDGELITLMYPITDHVGGPPYKVDVSTFEEVLVPIGFKAVSVEENPHAIPTRKGKEKLGRWKKIN
B2: AtHTMT1 (AtHOL1; halide/thiocyanate methyltransferase, HTMT) (Arabidopsis thaliana; Y172F) (protein)
chain: B1 chain with Y172F
B3: AtHTMT1 (AtHOL1; halide/thiocyanate methyltransferase, HTMT) (Arabidopsis thaliana; V23C) (protein)
chain: B1 chain with V23C

Substrate in the first data set: N#CS
The data set can be described thus: purified protein. The conditions noted are these: co-substrate SAM; tag removed.
Turning to B1, the Km came out at 0.099 ± 0.020 mM and the maximal velocity (Vmax) was found to be 0.0436 µmol/min/mg.

Consider B2, for which the Km came to 0.141 ± 0.009 mM and the Vmax came to 0.046 µmol/min/mg.

Turning to B3, the Km turned out to be 0.103 ± 0.009 mM and the Vmax came out at 0.0434 µmol/min/mg.

Substrate in another data set: Br
The data set can be described thus: purified protein. The conditions noted are these: co-substrate SAM; tag removed.
Take B1: the Michaelis constant (Km) was 24.87 ± 2.785 mM and the Vmax stood at 0.0114 µmol/min/mg.

Turning to B2, the Km came to 30.16 ± 2.942 mM and the Vmax stood at 0.0114 µmol/min/mg.

In the case of B3, the Km came out at 21.06 ± 1.883 mM and the maximum rate (Vmax) was determined as 0.0124 µmol/min/mg.

Values taken from paper PMC3386781.
